Measured values: patent publication US20230417748A1
Values joined by “and” are separate entries in the source; they are usually repeats but may differ in a detail not shown here. Equal entries are not always repeated.

Target: recombinant SARS (1-1190) (Beta Lifescience, BLIT-0210) (SARS-CoV), P59594
Conditions: remark: other sources report otherwise

Binder | O.D.
clone 5E9 (antibody, V domains shown) VH: EVQLVESGGGLVQPGGSLRLSCAASGFTFTTYDMGWVRQAPGKGPEWVSLISSGGSNTWYDDSVKGRFTISRDNSKNTLYLQMNSLRAEDTAVYYCAKEKYPYSDCDYWGQGTLVTVSS | 0.294 O.D. and 0.278 O.D.
clone 6D9 (antibody, V domains shown) VH: EVQLVESGGGLVQPGGSLRLSCAASGFTFTDYDMGWVRQAPGKGPEWVSLISGDSGNTWYDDSVKGRFTISRDNSKNTLYLQMNSLRAEDTAVYYCAKYRGTTKDYWGQGTLVTVSS | 0.389 O.D. and 0.386 O.D.
